Assay results reported in PMC6929039.
pKd: −log10 of the molar value. Where “and” joins values, the source holds several entries; their conditions need not be identical. Equal values may be shown once.

What was measured:
[1] = molecular target: Concanavalin A (Con A) internal_change (UniProt P02866); experiment: particle flow cytometry; details: after the 20-nt 5' primer: every T = mannose-clicked C8-alkyne-dU (4), binding buffer, salt, pH and temperature not given in the material (hemagglutination: 30 min preincubation at RT)
[2] = molecular target: Concanavalin A (Con A) internal_change (UniProt P02866); experiment: BLI; details: after the 20-nt 5' primer: every T = mannose-clicked C8-alkyne-dU (4), binding buffer, salt, pH and temperature not given in the material (hemagglutination: 30 min preincubation at RT)
[3] = every C = 5-formyl-dC (2), primer unmodified

Row | Sequence | pKd [1, 3] | pKd [2, 3] | pKd ([1]; C natural) | pKd ([2]; C natural)
1 | GATCCCAGTCCGAAGTAATCGTTGCATCTGCACGACTGGTGAGCTTGAGTGGCAGAAGAACTTGTGCAAACGGCTATAGG [ConA-3-1] | 7.70 | 8.24 | – | –
2 | GATCCCAGTCCGAAGTAATCGTTGCATCTGCACGACTGGTGAGCTTGAGTGGCAGAAGAACTTGTGCAAACGGCTATAGG [ConA-3-1m] | – | – | 7.77 | 8.49 and 8.28
